From patent publication US8420776 (US Dept. of Health and Human Services, dated 2013)

What was measured:
[1] = biological target: N-terminal GFP fusion of gp78 amino acids 579-600 of SEQ ID NO:2 (human, UniProt P42212 1-238 = GFP); assay: anti-Myc immunoprecipitation from cells co-transfected with GFP fusion and Myc-Ube2G2, anti-GFP immunoblot
[2] = biological target: T1, gp78 truncated after amino acid 576 of SEQ ID NO:2 (gp78576) (human, UniProt Q9UKV5 1-576); assay: anti-Myc immunoprecipitation from co-transfected cells, anti-gp78 immunoblot
T1 construct: C-terminal truncation after the indicated amino acid

[3] = biological target: T2, gp78 truncated after amino acid 595 of SEQ ID NO:2 (gp78595) (human, UniProt Q9UKV5 1-595); assay: as above
T2 construct: C-terminal truncation after the indicated amino acid

[4] = biological target: T3, gp78 truncated after residue 611 of SEQ ID NO:2 (gp78611) (human, UniProt Q9UKV5 1-611); assay: as above
T3 construct: C-terminal truncation after the indicated amino acid

[5] = biological target: T4, lysine 48-linked (K48) tetra-ubiquitin (UniProt P0CG48 1-76, four ubiquitins joined by lysine 48 isopeptide links); assay: GST pull-down, anti-ubiquitin immunoblot
T4 construct: the monomer is its first 76 residues

[6] = biological target: UbcH5B, in vitro translated and labelled with 35S-methionine (human, UniProt P62837 1-147); assay: GST pull-down, E2 in vitro translated in wheat germ
[7] = biological target: T5, yeast Ubc7p, in vitro translated and labelled with 35S-methionine (yeast, UniProt Q02159 1-165, 35S-methionine label); assay: GST pull-down, E2 translated in wheat germ and labelled with 35S-Met, equal counts
T5 sequence (looked up): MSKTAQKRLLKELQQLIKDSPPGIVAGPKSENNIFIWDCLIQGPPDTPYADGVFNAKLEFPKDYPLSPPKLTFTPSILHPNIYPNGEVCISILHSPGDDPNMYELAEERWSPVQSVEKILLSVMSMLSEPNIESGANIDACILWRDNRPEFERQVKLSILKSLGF

[8] = biological target: T6, Ube2G2/MmUbc7, in vitro translated and labelled with 35S-methionine (human (100% identical to mouse MmUbc7), UniProt P60604 1-165, 35S-methionine label); assay: as above
T6 construct: Translated in wheat germ or rabbit reticulocyte lysate; also called in vitro translated Ube2G2
T6 sequence: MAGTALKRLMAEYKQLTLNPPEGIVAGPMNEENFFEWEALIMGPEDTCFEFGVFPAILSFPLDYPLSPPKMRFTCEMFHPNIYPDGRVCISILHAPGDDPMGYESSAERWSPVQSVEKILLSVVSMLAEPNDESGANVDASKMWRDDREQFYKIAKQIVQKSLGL

[9] = biological target: N-terminal GFP fusion of gp78 residues 574-611 with the E2-m2 mutation (GFP-574-611E2-m2) (human, UniProt P42212 1-238 = GFP); assay: anti-GFP immunoprecipitation from HEK 293T cells, immunoblot for endogenous Ube2G2
[10] = biological target: T7, N-terminal GFP fusion of gp78 residues 574-611 (GFP-574-611) (human, UniProt P42212 1-238 = GFP); assay: co-immunoprecipitation with GFP fusion from HEK 293T cells
T7 construct: the vector encodes the enhanced variant; also called G2BD

B1: Myc-Ube2G2, co-expressed in HEK 293T cells (enzyme, not shown: small tags and cut ends)
chain: T6 sequence
notes: Plasmid described in Tiwari and Weissman, 2001; also called Myc-MmUbc7; myc-tagged MmUbc7/Ube2G2
Q: Does B1 bind [1]?
A: binds

Q: Does B1 bind [2]?
A: no binding

Q: Does B1 bind [3]?
A: no binding

Q: Does B1 bind [4]?
A: binds

B2: GST fusion of the cytoplasmic domain of yeast Cue1p (Cue1p 24-203) (other, UniProt P38428 24-203, looked up)
chain: QSNQHPSAQRLSATGVNAHGRPQGSTQNALRRTGRVNGGHPVTTQMVETVQNLAPNLHPEQIRYSLENTGSVEETVERYLRGDEFSFPPGFEPSRAPMGANAAVDNNAAGGGEFNDPRKKNMICAENLLDKFHVDLNEDMSNLSFKDLDIEERKRLLVWQARKNLETKLQSDKDLQSLLT
notes: range 24-203; also called GST-Cue1p 24-203; not shown: glutathione S-transferase (GST) fusion partner, N-terminal (pGEX4T-1)
Q: What does the source list for B2?
A: binding result [5]: no binding (tested: 1 ug K48 tetra-ubiquitin); binding result [6]: no binding; amount bound (% of input) [7]: ~10 % of input; amount bound (% of input) [8]: ~10 % of input

B3: endogenous Ube2G2 of HEK 293T cells (enzyme)
chain: AGTALKRLMAEYKQLTLNPPEGIVAGPMNEENFFEWEALIMGPEDTCFEFGVFPAILSFPLDYPLSPPKMRFTCEMFHPNIYPDGRVCISILHAPGDDPMGYESSAERWSPVQSVEKILLSVVSMLAEPNDESGANVDASKMWRDDREQFYKIAKQIVQKSLGL
notes: Endogenous protein in cell lysate, detected with rabbit antiserum to residues 148-165; also called endogenous E2
Q: Does B3 bind [9]?
A: no binding

Q: Does B3 bind [10]?
A: binds
